From patent US20220281965A1 (AstraZeneca / MedImmune, published 2022)

Tests used:
[1] = molecular target: T1, mature recombinant mouse GDF-15 with Flag and His tags (mouse, UniProt Q9Z0J7 189-303); assay: SPR Biacore 8K, biotinylated mouse GDF-15 on streptavidin C1 chip, Fab as analyte
T1 construct: also called Flag tagged mouse GDF-15; not shown: FLAG and poly-His tags immediately C-terminal to the furin cleavage site (N-terminal on the mature protein)
T1 sequence: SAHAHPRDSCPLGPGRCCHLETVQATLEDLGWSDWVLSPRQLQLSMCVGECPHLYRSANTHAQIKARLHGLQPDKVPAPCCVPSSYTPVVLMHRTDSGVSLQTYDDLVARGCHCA
Protocol: (§1) The experiments were carried out using mature recombinant human GDF-15, human GDF-15 H202D variant, mouse GDF-15, and cynomolgus GDF-15 with an N-terminal Flag and His tag. All species were chemically biotinylated using EZ link Sulfo-NHS-LC-Biotin (Thermo).
(§2) Streptavidin was covalently immobilized to a C1 chip surface using standard amine coupling techniques at a concentration of 4 μg/ml in 10 mM Sodium acetate pH 4.5. Recombinant biotinylated GDF-15 species were titrated onto the streptavidin chip surface in HBS-EP+ buffer to enable Fab binding.
(§3) Multiple buffer-only injections were made under the same conditions to allow for double reference subtraction of the final sensorgram sets, which were analyzed using Biacore 8K Evaluation Software. The chip surface was fully regenerated with pulses of 50 mM NaOH.

[2] = molecular target: T2, mature recombinant human GDF-15 H202D variant with an N-terminal Flag and His tag, biotinylated (human, UniProt Q99988 197-308, chemically biotinylated with EZ link Sulfo-NHS-LC-Biotin, sites not stated); assay: SPR Biacore 8K, 25 C, biotinylated GDF-15 on streptavidin C1 chip, Fab as analyte
T2 construct: also called Human H202D; not shown: N-terminal Flag and His tags
T2 chain: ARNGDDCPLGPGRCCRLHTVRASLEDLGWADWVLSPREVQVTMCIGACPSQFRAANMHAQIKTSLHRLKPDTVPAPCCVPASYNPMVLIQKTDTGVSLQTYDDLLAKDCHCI
Protocol: as §1, §2, §3

[3] = molecular target: T3, mature recombinant human GDF-15 with an N-terminal Flag and His tag, biotinylated (human, UniProt Q99988 197-308, chemically biotinylated with EZ link Sulfo-NHS-LC-Biotin, sites not stated); assay: as above
T3 construct: not shown: N-terminal Flag and His tags
T3 sequence: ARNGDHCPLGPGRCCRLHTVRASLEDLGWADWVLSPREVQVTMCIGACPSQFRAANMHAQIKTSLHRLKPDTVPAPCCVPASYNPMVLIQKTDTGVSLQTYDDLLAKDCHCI
Protocol: as §1, §2, §3

[4] = molecular target: T4, mature recombinant cynomolgus GDF-15 with an N-terminal Flag and His tag, biotinylated (cynomolgus, UniProt G7PWZ3 197-308, chemically biotinylated with EZ link Sulfo-NHS-LC-Biotin, sites not stated); assay: as above
T4 construct: not shown: N-terminal Flag and His tags
T4 sequence: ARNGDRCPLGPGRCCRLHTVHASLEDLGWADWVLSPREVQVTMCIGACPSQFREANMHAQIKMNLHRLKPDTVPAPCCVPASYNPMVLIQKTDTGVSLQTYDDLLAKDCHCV
Protocol: as §1, §2, §3

- binding result [1]: no binding
- Kd [2]: 9.5 nM
- koff [2]: 0.0385 s⁻¹
- kon [2]: 4.06e+06 M⁻¹ s⁻¹
- Kd [3]: 9.24 nM
- koff [3]: 0.0386 s⁻¹
- kon [3]: 4.18e+06 M⁻¹ s⁻¹
- Kd [4]: 15 nM
- koff [4]: 0.0686 s⁻¹
- kon [4]: 4.58e+06 M⁻¹ s⁻¹
B1: AB1170247 Fab (Fab, V domains shown)
VH: QVQLVQSGSELKKPGASVKVSCKASGYTFTSYDINWVRQAPGQGLEWIGWIYPRDGISKYNEKFKGRATLTVDTSASTAYMELSSLRSEDTAVYYCAGTYDPAYFDYWGQGTTVTVSS
VL: EIVLTQSPATLSVSPGERATLSCRASQSISYYLHWYQQKPGQAPRLLIKYASQSISGVPDRFSGSGSGTDFTLKISRVEAEDFGVYYCQQSNSWPYTFGGGTKVEIK
notes: Fab of the humanized antibody, expressed as in Spooner et al. 2015
